How the values were obtained:
mouse model of AD = assay: APP transgenic mouse model of AD; assay type: in vivo, mice
Protocol: Experiments were performed to evaluate whether TTP-4000 could affect amyloid formation and cognitive dysfunction in a mouse model of AD. The experiments utilized transgenic mice expressing the human Swedish mutant amyloid precursor protein (APP) under the control of the PDGF-B chain promoter. Over time, these mice generate high levels of the RAGE ligand, amyloid beta (Aβ).
The APP mice (male) used in this experiment were designed by microinjection of the human APP gene (with the Swedish and London mutations) into mouse eggs under the control of the platelet-derived growth factor B (PDGF-B) chain gene promoter. The mice were generated on a C57BL/6 background and were developed by Molecular Therapeutics Inc. Animals were fed ad libitum and maintained by brother sister mating. The mice generated from this construct develop amyloid deposits starting at 6 months of age. Animals were aged for 6 months and then maintained for 90 days and sacrificed for amyloid quantification.
APP transgenic mice were administered vehicle or TTP4000 every other day [qod (i.p.)] for 90 days starting at 6 months of age. At the end of the experiment, animals were sacrificed and examined for Aβ plaque burden in the brain (i.e., plaque number). A 6-month control APP group was used to determine the baseline of amyloid deposits. In addition, at the end of the study, the animals were subjected to behavioral (Morris water maze) analysis. The investigators were blinded to the study compounds. Samples were given to the mice at 0.25 ml/mouse/every other day.
For histological examination, the animals were anesthetized with an intraperitoneal injection (IP) of sodium pentobarbital (50 mg/kg). The animals were transcardially perfused with 4° C., phosphate-buffered saline (PBS) followed by 4% paraformaldehyde. The brains were removed and placed in 4% paraformaldehyde over night. The brains were processed to paraffin and embedded. Ten serial 30-μm thick sections through the brain were obtained. Sections were subjected to primary antibody overnight at 4° C. (Aβ peptide antibody) in order to detect the amyloid deposits in the brain of the transgenic animals (Guo et al., J. Neurosci., 22:5900-5909 (2002)). Sections were washed in Tris-buffered saline (TBS) and secondary antibody was added and incubated for 1 hour at room temperature. After washing, the sections were incubated as instructed in the Vector ABC Elite kit (Vector Laboratories) and stained with […] (DAB). The reactions were stopped in water and cover-slipped after treatment with xylene. The amyloid area in each section was determined with a computer-assisted image analysis system, consisting of a Power Macintosh computer equipped with a Quick Capture frame grabber card, Hitachi CCD camera mounted on an Olympus microscope and camera stand. NIH Image Analysis Software, v. 1.55 was used. The images were captured and the total area of amyloid was determined over the ten sections. A single operator blinded to treatment status performed all measurements. Summing the amyloid volumes of the sections and dividing by the total number of sections was done to calculate the amyloid volume.
For quantitative analysis, an enzyme-linked immunosorbent assay (ELISA) was used to measure the levels of human total Aβ, Aβtotal and Aβ1-42 in the brains of APP transgenic mice (Biosource International, Camarillo, Calif.). Aβtotal and Aβ1-42 were extracted from mouse brains by guanidine hydrochloride and quantified as described by the manufacturer. […]

[1] = Solubility of TTP-4000 in formulation buffers; assay type: physicochemical; conditions: citrate versus histidine buffers
Protocol: Formulations containing sodium acetate, sodium citrate, sodium phosphate, sodium succinate, histidine, and sodium chloride were tested along with sucrose and mannitol. Various pH's between 5.5 and 7.0 were also evaluated.
Based on the solubility of the RAGE fusion protein in formulations containing one or more of sodium citrate, histidine, sucrose, mannitol, and Tween 80 at a pH of 7.0 or less, formulations containing one or more of these buffers, lyoprotectants, or surfactant were selected for further study.

[2] = treated for 3 months, qod i.p., versus vehicle and human IgG1

B1: TTP-4000: four domain RAGE fusion protein: human RAGE N-terminal sequence (to position 251) linked to human IgG Fc (γ1) without hinge; SEQ ID NO: 34/56 (protein)
chain: QNITARIGEPLVLKCKGAPKKPPQRLEWKLNTGRTEAWKVLSPQGGGPWDSVARVLPNGSLFLPAVGIQDEGIFRCQAMNRNGKETKSNYRVRVYQIPGKPEIVDSASELTAGVPNKVGTCVSEGSYPAGTLSWHLDGKPLVPNEKGVSVKEQTRRHPETGLFTLQSELMVTPARGGDPRPTFSCSFSPGLPRHRALRTAPIQPRVWEPVPLEEVQLVVEPEGGAVAPPSVFLFPPKPKDTLMISRTPEVTCVVVDVSHEDPEVKFNWYVDGVEVHNAKTKPREEQYNSTYRVVSVLTVLHQDWLNGKEYKCKVSNKALPAPIEKTISKAKGQPREPQVYTLPPSRDELTKNQVSLTCLVKGFYPSDIAVEWESNGQPENNYKTTPPVLDSDGSFFLYSKLTVDKSRWQQGNVFSCSVMHEALHNHYTQKSLSLSPGK
**Q.** What does the source list for B1?
**A.** inflammatory cytokines IL-1 and TNF-α (mouse model of AD; data not shown): can reduce the inflammatory cytokines IL-1 and TNF-α; Aβ plaques in the brain (mouse model of AD; [2]): fewer Aβ plaques; cognitive dysfunction (Morris water maze) (mouse model of AD; [2]): less cognitive dysfunction; solubility in formulations, in words [1]: may be more soluble in formulations containing histidine

— US8344120B2, “Nucleic acid molecules encoding rage fusion proteins” (TransTech Pharma, Inc., priority 2006, dated 2013)
